From patent publication US20120114659A1

Target: human NPRA on HEK cells, without ligand (human) (UniProt P16066)
Assay: cell-based or functional assay

Chain of BNP (B-type natriuretic peptide) (P16860 103-134): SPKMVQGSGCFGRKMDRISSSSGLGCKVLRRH
Chain of human NPRA on HEK cells, without ligand (human) (P16066 33-1061 limits assumed): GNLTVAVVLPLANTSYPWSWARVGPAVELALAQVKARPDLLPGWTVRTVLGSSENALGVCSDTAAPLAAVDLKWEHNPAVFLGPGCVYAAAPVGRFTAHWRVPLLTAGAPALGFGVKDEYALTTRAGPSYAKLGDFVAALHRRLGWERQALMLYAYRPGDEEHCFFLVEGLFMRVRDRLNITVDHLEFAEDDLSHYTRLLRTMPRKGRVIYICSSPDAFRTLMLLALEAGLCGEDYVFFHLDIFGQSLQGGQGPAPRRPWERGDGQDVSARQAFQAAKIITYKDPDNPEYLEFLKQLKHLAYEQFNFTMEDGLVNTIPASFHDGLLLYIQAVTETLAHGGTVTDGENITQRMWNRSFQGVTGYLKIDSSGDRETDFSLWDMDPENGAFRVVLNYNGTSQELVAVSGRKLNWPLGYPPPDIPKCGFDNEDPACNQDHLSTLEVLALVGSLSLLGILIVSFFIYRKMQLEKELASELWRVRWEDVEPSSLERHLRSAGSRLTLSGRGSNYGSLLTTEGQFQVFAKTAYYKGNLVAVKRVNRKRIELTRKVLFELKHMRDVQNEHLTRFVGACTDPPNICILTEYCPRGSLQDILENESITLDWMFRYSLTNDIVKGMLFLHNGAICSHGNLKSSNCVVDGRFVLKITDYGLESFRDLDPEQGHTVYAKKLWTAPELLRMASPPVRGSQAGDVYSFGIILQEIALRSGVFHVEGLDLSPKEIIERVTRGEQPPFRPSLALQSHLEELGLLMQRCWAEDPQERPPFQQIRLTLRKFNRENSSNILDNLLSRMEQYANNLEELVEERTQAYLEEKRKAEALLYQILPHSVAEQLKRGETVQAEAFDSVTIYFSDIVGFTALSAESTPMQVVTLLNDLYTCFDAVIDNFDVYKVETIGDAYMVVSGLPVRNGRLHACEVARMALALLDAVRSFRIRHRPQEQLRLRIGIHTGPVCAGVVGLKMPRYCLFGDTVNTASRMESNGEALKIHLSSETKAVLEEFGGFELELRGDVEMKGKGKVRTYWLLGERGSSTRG

EC50 of BNP for cGMP production in HEK NPRA cells in presence of 400 nM Fab 5504: 18 nM
EC50 of BNP for cGMP production in HEK NPRA cells in presence of 400 nM negative control Fab: 90 nM
Substance: BNP (B-type natriuretic peptide) (from UniProt P16860 103-134)
